Test results: article PMC9482650, “Quantitative fragmentomics allow affinity mapping of interactomes” (Nature Communications, 2022)

T1: APBA1_1, Q02410
T1 sequence (Q02410 651-752, limits assumed, looked up): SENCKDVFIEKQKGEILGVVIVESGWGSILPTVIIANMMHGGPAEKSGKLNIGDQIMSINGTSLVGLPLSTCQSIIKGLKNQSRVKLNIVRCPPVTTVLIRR

T2: APBA2_1, Q99767
T2 sequence (Q99767 563-664, limits assumed, looked up): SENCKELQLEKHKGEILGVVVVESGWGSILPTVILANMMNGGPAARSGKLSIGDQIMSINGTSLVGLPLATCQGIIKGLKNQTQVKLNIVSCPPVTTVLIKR

T3: GRIP1_2, Q9Y3R0
T3 sequence (Q9Y3R0 145-248, limits assumed, looked up): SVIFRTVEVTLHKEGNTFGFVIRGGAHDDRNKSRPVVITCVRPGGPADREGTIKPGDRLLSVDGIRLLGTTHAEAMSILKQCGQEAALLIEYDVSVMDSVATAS

T4: GRIP1_3, Q9Y3R0
T4 sequence (Q9Y3R0 247-346, limits assumed, looked up): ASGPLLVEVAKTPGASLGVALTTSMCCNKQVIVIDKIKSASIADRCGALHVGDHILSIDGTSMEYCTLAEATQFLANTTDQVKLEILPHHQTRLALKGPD

T5: GRIP1_5, Q9Y3R0
T5 sequence (Q9Y3R0 568-668, limits assumed, looked up): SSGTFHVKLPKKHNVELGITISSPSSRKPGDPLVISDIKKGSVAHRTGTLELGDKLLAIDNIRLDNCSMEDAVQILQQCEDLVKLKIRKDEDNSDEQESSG

T6: GRIP1_7, Q9Y3R0
T6 sequence (Q9Y3R0 999-1096, limits assumed, looked up): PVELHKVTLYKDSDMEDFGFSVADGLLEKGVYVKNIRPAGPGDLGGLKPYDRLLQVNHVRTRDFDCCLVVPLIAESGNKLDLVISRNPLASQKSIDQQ

T7: MPP7, Q5T2T1
T7 sequence (Q5T2T1 134-230, limits assumed, looked up): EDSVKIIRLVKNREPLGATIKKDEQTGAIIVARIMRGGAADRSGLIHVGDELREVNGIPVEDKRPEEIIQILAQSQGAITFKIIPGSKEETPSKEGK

T8: SYNJ2BP, P57105
T8 sequence (P57105 8-110, limits assumed, looked up): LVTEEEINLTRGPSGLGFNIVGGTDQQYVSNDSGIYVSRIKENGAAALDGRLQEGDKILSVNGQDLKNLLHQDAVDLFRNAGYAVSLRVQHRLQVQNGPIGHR

T9: TJP3_3, O95049
T9 sequence (O95049 375-456, limits assumed, looked up): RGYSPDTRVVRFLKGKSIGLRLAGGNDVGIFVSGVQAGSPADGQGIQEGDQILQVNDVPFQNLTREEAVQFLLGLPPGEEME


Legend:
Experiment in all cases: holdup assay
Set-up in all cases: key: below the threshold = too weak to quantify, mostly under pKd 3.1 to 4
Conditions in all cases: plain residues with an end cap or a label only (N-terminal biotin on a linker: ado-ado)
APBA1_1, Q02410 = biological target: T1, APBA1_1, Q02410
APBA2_1, Q99767 = biological target: T2, APBA2_1, Q99767
CASK, O14936 = biological target: CASK, O14936
DLG5_1, Q8TDM6 = biological target: DLG5_1, Q8TDM6
FRMPD4, Q14CM0 = biological target: FRMPD4, Q14CM0
GORASP2, Q9H8Y8 = biological target: GORASP2, Q9H8Y8
GRID2IP_1, A4D2P6 = biological target: GRID2IP_1, A4D2P6
GRIP1_2, Q9Y3R0 = biological target: T3, GRIP1_2, Q9Y3R0
GRIP1_3, Q9Y3R0 = biological target: T4, GRIP1_3, Q9Y3R0
GRIP1_5, Q9Y3R0 = biological target: T5, GRIP1_5, Q9Y3R0
GRIP1_7, Q9Y3R0 = biological target: T6, GRIP1_7, Q9Y3R0
GRIP2_4, Q9C0E4 = biological target: GRIP2_4, Q9C0E4
GRIP2_5, Q9C0E4 = biological target: GRIP2_5, Q9C0E4
GRIP2_6, Q9C0E4 = biological target: GRIP2_6, Q9C0E4
GRIP2_7, Q9C0E4 = biological target: GRIP2_7, Q9C0E4
HTRA2, O43464 = biological target: HTRA2, O43464
Inadl_2, Q8NI35 = biological target: Inadl_2, Q8NI35
LAP2, Q96RT1 = biological target: LAP2, Q96RT1
MAGI2_2, Q86UL8 = biological target: MAGI2_2, Q86UL8
MAGI2_4, Q86UL8 = biological target: MAGI2_4, Q86UL8
MPP7, Q5T2T1 = biological target: T7, MPP7, Q5T2T1
PDZRN4_1, Q6ZMN7 = biological target: PDZRN4_1, Q6ZMN7
SCRIB_1, Q14160 = biological target: SCRIB_1, Q14160
SCRIB_2, Q14160 = biological target: SCRIB_2, Q14160
SNX27, Q96L92 = biological target: SNX27, Q96L92
SYNJ2BP, P57105 = biological target: T8, SYNJ2BP, P57105
TJP2_1, Q9UDY2 = biological target: TJP2_1, Q9UDY2
TJP3_3, O95049 = biological target: T9, TJP3_3, O95049

FRMPD4, Q14CM0, sequence (Q14CM0 67-160): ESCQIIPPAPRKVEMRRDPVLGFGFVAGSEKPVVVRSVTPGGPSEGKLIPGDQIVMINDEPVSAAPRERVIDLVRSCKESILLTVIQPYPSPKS
Inadl_2, Q8NI35, sequence (Q8NI35 238-335): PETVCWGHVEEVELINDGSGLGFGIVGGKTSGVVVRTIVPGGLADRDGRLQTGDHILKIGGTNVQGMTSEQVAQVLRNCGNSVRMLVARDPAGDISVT
SCRIB_1, Q14160, sequence (Q14160 718-814): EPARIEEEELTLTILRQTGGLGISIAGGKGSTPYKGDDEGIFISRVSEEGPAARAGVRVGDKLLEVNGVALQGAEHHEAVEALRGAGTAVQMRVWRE
DLG5_1, Q8TDM6, sequence (Q8TDM6 617-713): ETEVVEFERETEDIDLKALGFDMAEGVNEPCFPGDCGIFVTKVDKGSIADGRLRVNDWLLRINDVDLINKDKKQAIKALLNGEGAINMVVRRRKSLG
TJP2_1, Q9UDY2, sequence (Q9UDY2 24-128): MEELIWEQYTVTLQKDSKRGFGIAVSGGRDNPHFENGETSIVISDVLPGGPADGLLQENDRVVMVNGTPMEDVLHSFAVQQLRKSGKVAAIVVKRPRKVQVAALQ
GRIP2_4, Q9C0E4, sequence (Q9C0E4 446-548): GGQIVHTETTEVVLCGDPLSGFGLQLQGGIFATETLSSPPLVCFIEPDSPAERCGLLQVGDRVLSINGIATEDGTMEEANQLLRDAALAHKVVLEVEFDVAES
PDZRN4_1, Q6ZMN7, sequence (Q6ZMN7 213-318): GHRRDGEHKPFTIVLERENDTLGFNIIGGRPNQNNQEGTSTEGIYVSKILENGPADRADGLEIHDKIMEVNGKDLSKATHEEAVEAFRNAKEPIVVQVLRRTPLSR
HTRA2, O43464, sequence (O43464 355-458): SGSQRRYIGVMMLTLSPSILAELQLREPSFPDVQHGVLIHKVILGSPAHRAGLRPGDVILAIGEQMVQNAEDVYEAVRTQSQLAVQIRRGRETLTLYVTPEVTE
CASK, O14936, sequence (O14936 487-570): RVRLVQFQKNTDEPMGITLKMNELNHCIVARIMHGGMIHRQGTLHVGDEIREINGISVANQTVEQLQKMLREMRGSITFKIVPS
GRID2IP_1, A4D2P6, sequence (A4D2P6 1-87): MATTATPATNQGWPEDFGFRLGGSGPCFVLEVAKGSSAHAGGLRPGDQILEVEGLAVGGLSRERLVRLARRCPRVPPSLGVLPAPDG
MAGI2_4, Q86UL8, sequence (Q86UL8 772-865): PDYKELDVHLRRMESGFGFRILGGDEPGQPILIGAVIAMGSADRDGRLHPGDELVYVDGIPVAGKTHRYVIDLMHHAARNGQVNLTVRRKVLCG
SCRIB_2, Q14160, sequence (Q14160 857-960): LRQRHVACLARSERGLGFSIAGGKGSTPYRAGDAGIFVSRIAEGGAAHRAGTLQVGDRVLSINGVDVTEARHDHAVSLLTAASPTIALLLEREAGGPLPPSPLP
LAP2, Q96RT1, sequence (Q96RT1 other isoform, or with tags, fused parts or gaps): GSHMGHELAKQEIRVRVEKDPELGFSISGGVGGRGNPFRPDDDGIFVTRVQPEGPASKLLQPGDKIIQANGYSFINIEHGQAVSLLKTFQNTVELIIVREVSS
GRIP2_7, Q9C0E4, sequence (Q9C0E4 934-1023): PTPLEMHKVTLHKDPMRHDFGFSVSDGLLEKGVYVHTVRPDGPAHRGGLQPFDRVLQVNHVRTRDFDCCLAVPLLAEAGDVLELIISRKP
GRIP2_6, Q9C0E4, sequence (Q9C0E4 648-740): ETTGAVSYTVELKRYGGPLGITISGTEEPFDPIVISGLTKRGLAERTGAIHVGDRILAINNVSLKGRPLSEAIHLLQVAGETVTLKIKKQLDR
GRIP2_5, Q9C0E4, sequence (Q9C0E4 544-642): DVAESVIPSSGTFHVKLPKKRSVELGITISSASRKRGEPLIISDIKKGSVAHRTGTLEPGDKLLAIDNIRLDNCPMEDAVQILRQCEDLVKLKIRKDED
MAGI2_2, Q86UL8, sequence (Q86UL8 410-522): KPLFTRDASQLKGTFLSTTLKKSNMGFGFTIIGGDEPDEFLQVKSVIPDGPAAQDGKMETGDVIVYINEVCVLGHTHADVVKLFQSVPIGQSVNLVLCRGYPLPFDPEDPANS

Row | Binder | pKd (APBA1_1, Q02410) | pKd (APBA2_1, Q99767) | pKd (CASK, O14936) | pKd (DLG5_1, Q8TDM6) | pKd (FRMPD4, Q14CM0) | pKd (GORASP2, Q9H8Y8) | pKd (GRID2IP_1, A4D2P6) | pKd (GRIP1_2, Q9Y3R0) | pKd (GRIP1_3, Q9Y3R0) | pKd (GRIP1_5, Q9Y3R0) | pKd (GRIP1_7, Q9Y3R0) | pKd (GRIP2_4, Q9C0E4) | pKd (GRIP2_5, Q9C0E4) | pKd (GRIP2_6, Q9C0E4) | pKd (GRIP2_7, Q9C0E4) | pKd (HTRA2, O43464) | pKd (Inadl_2, Q8NI35) | pKd (LAP2, Q96RT1) | pKd (MAGI2_2, Q86UL8) | pKd (MAGI2_4, Q86UL8) | also measured
1 | MQILSKPEFI [NPSR1, Q6W5P4] | 3.88 | 3.74 | below the threshold | below the threshold | below the threshold | 4.61 | below the threshold | below the threshold | below the threshold | below the threshold | below the threshold | below the threshold | below the threshold | below the threshold | 3.69 | 3.72 | below the threshold | below the threshold | below the threshold | below the threshold | pKd (MPP7, Q5T2T1): below the threshold; pKd (PDZRN4_1, Q6ZMN7): below the threshold; pKd (SCRIB_1, Q14160): below the threshold; pKd (SCRIB_2, Q14160): below the threshold; pKd (SNX27, Q96L92): below the threshold; pKd (SYNJ2BP, P57105): below the threshold; pKd (TJP2_1, Q9UDY2): below the threshold; pKd (TJP3_3, O95049): below the threshold
2 | QKASRNESTF [POLR1D, P0DPB6] | below the threshold | below the threshold | below the threshold | below the threshold | below the threshold | below the threshold | below the threshold | below the threshold | below the threshold | below the threshold | below the threshold | below the threshold | below the threshold | below the threshold | below the threshold | below the threshold | below the threshold | below the threshold | below the threshold | 3.88 | pKd (MPP7, Q5T2T1): below the threshold; pKd (PDZRN4_1, Q6ZMN7): below the threshold; pKd (SCRIB_1, Q14160): 3.55; pKd (SCRIB_2, Q14160): below the threshold; pKd (SNX27, Q96L92): 4.29; pKd (SYNJ2BP, P57105): below the threshold; pKd (TJP2_1, Q9UDY2): below the threshold; pKd (TJP3_3, O95049): below the threshold
3 | KIEDVEITLV [FCHSD2, O94868] | below the threshold | below the threshold | below the threshold | 3.52 | below the threshold | 4.01 | below the threshold | below the threshold | below the threshold | below the threshold | below the threshold | below the threshold | below the threshold | below the threshold | below the threshold | 3.93 | 4.3 | 3.84 | 3.77 | 4.07 | pKd (MPP7, Q5T2T1): below the threshold; pKd (PDZRN4_1, Q6ZMN7): 3.64; pKd (SCRIB_1, Q14160): 3.8; pKd (SCRIB_2, Q14160): below the threshold; pKd (SNX27, Q96L92): 5.01; pKd (SYNJ2BP, P57105): 3.82; pKd (TJP2_1, Q9UDY2): below the threshold; pKd (TJP3_3, O95049): below the threshold
4 | KEKASTETEC [TRPM1, Q7Z4N2] | below the threshold | below the threshold | below the threshold | below the threshold | below the threshold | below the threshold | below the threshold | below the threshold | below the threshold | below the threshold | below the threshold | below the threshold | below the threshold | below the threshold | below the threshold | below the threshold | below the threshold | 3.67 | below the threshold | below the threshold | pKd (MPP7, Q5T2T1): below the threshold; pKd (PDZRN4_1, Q6ZMN7): below the threshold; pKd (SCRIB_1, Q14160): 4.31; pKd (SCRIB_2, Q14160): 3.52; pKd (SNX27, Q96L92): 4.53; pKd (SYNJ2BP, P57105): 3.83; pKd (TJP2_1, Q9UDY2): below the threshold; pKd (TJP3_3, O95049): below the threshold
